Patent publication US20260275304A1, “METHODS AND COMPOSITIONS FOR GLYPHOSATE TOLERANCE IN PLANTS” (Monsanto Technology LLC, priority 2023, published 2026)
Substitutions are numbered along the chain they refer to. Numbers in names are those of the source.

B1: TIPS-P126S-M217L-K296R: maize EPSPS variant, SEQ ID NO:10 (protein)
chain: AGAEEIVLQPIKEISGTVKLPGSKSLSNRILLLAALSEGTTVVDNLLNSEDVHYMLGALRTLGLSVEADKAAKRAVVVGCGGKFPVEDSKEEVQLFLGNAGIAMRSLTAAVTAAGGNATYVLDGVSRMRERPIGDLVVGLKQLGADVDCFLGTDCPPVRVNGIGGLPGGKVKLSGSISSQYLSALLMAAPLALGDVEIEIIDKLISIPYVEMTLRLLERFGVKAEHSDSWDRFYIKGGQKYKSPKNAYVEGDASSASYFLAGAAITGGTVTVEGCGTTSLQGDVKFAEVLEMMGARVTWTETSVTVTGPPREPFGRKHLKAIDVNMNKMPDVAMTLAVVALFADGPTAIRDVASWRVKETERMVAIRTELTKLGASVEEGPDYCIITPPEKLNVTAIDTYDDHRMAMAFSLAACAEVPVAIRDPGCTRKTFPDYFDVLSTFVKN
modifications: Zea mays
B2: P126S-K296R: maize EPSPS variant, SEQ ID NO:14 (protein)
chain: B1 chain with I102T, S106P, L217M
modifications: Zea mays

Legend:
[1] = test system: wild-type S. cerevisiae BY4741; test: Growth of wild-type yeast in glyphosate; assay type: cell-based, Saccharomyces cerevisiae; settings: 5 mM and 10 mM glyphosate
Source text: Previous research has primarily focused on E. coli as a chassis for selecting improved EPSP synthases. The present example details the development of S. cerevisiae as a model eukaryotic system for glyphosate resistance, thus requiring synthetically addicting this cell to the expression and activity of EPSPS in an effort to create a growth-based selection scheme. Yeast have previously been reported to be resistant to glyphosate.

[2] = test system: transgenic maize plants; test: Maize transformation with glyphosate selection, plantlet recovery and quality checks; assay type: in vivo, Zea mays; settings: for Number of young plants passing quality control checks: in vivo; for Number of plantlets generated: under glyphosate selection, same amount of starting material
Source text: Maize was used as a model system to test the functionality of the EPSPS variants because of detailed previous characterization of glyphosate tolerance in maize and a suitable transgenic plant generation protocol that relies on glyphosate. Plant transformation vectors were generated in which the native maize EPSPS sequence was used, which includes the native gene promoter elements, the native introns and exons and the native 3′ untranslated region and introduced mutations that corresponded to each of the selected amino acid changes. The native sequence was used to mimic as closely as possible how the selected EPSPS variants would perform if the variants were introduced directly in the genome without the help of strong expression elements. The following variants were selected for testing in a transgenic maize system: TIPS (as a control); TIPS-P126S-M217L-K296R; TIPS-P126S-K296R; T102I-P126S-K296R (where only the T102I change is present); P106S-P126S-K296R (where only the P106S change is present); and P126S-K296R (where neither of the TIPS changes are present).
Transgenic maize plants that expressed each of the six EPSPS variants were generated to determine if the variants conferred glyphosate tolerance to plants. The full DNA sequence encoding TIPS EPSPS (SEQ ID NO:1) was cloned from maize genomic DNA. In this sequence, the promoter and 5′ UTR are nucleotides 1:2556; the chloroplast transit peptide sequence is nucleotides 2557:2742; EXON 1 is nucleotides 2743:2856; INTRON 1 is nucleotides 2857:3384; EXON 2 is nucleotides 3385:3626; INTRON 2 is nucleotides 3627:3725; EXON 3 is nucleotides 3726:3879; INTRON 3 is nucleotides 3880:4152; EXON 4 is nucleotides 4153:4367; INTRON 4 is nucleotides 4368:4877; EXON 5 is nucleotides 4878:4995; INTRON 5 is nucleotides 4996:5155; EXON 6 is nucleotides 5156:5366; INTRON 6 is nucleotides 5367:5446; EXON 7 is nucleotides 5447:5508; INTRON 7 is nucleotides 5509:5617; EXON 8 is nucleotides 5618:5836; and the 3′ UTR is nucleotides 5837:6368. Mutations were then introduced into the EPSPS coding sequence in order to produce each of the six EPSPS variants to be tested. These mutated full genomic DNA sequences were then each cloned as a single expression cassette into plant transformation vectors.
Agrobacterium tumefaciens-mediated plant transformation was performed using methods known in the art. Glyphosate selection was used to select for transgenic events containing the transgene of interest and further screened for only those EPSPS variants that provided effective glyphosate tolerance in a plant cell. While all six EPSPS variants began the transformation process with the same amount of starting maize cellular material, there were differences in the number of small plantlets recovered that were capable of being transplanted to greenhouse soil media (Table 4). Transgenic events were further analyzed to determine transgene copy number. Healthy events with single copy of the transgene of interest were grown in the greenhouse soil media. Only three of the six EPSPS variants had more than one plant surviving. Up to twenty-five of these developing R0 plants were transplanted to larger pots and allowed to grow to maturity for seed collection in the greenhouse.

[3] = test system: transgenic maize plants; test: Greenhouse glyphosate spray test on hybrid (hemizygous) transgenic maize; assay type: in vivo, Zea mays
Protocol: To further evaluate the performance of EPSPS variants for glyphosate tolerance, transgenic maize plants comprising a single copy of the transgene encoding the EPSPS variants TIPS-P126S-M217L-K296R or TIPS-P126S-K296R were grown to maturity. Homozygous transgenic plants were crossed with an inbred line to produce hybrid seeds.
Plants from the hybrid seeds (hemizygous for the transgenes) of two independent transformation events for each of the two variants were grown in the greenhouse for glyphosate spray test. Roundup® PowerMax3, a commercial formulation of glyphosate, was applied at the third leaf stage at two rates: 1120 gram/hectare (1× the field rate) and 2240 gram/hectare (2× the field rate). The controls included an untreated untransformed control without glyphosate treatment, an untransformed control sprayed with glyphosate, and a TIPS positive control both sprayed with glyphosate. Glyphosate herbicide injury (plant stunting, chlorosis, necrosis, malformation, and death) was assessed by visual inspection of the plants 18 days after herbicide treatment. Herbicide injury rate was presented on a scale of 0 to 100 with “0” being no visible crop injury and “100” being complete crop injury or death.

[4] = test system: S. cerevisiae strain sKR-024; test: Growth of synthetic yeast strain sKR-024 expressing EPSPS variants with or without glyphosate; assay type: cell-based, Saccharomyces cerevisiae; settings: for glyphosate tolerance in synthetic yeast host: mutants isolated from directed evolution
Protocol: EPSPS variants were re-cloned into a clean p416-Core1p backbone and transformed into strain sKR-024 as described above. Colonies were then picked in triplicate into YSC-Ura-Leu and outgrown for 2 days at 30° C. Cultures were then diluted back to OD 0.001 in yeast minimal media (YMM) containing varying amounts of glyphosate as indicated. Growth rate measurements were then obtained using an Infinite M200 PRO microplate reader (Tecan, Männedorf, Switzerland) with incubation at 30° C. for 72-120 hours depending on growth rate of selected variants.
To determine if this system could further corroborate observations from previous literature, the well-studied EPSPS mutants T102I and P106S, and the combined double mutant TIPS (T102I-P106S) were generated and complemented into this yeast system. These mutations were reported to result in varying degrees of glyphosate resistance.
Having established low copy number and weak promoter expression of EPSPS variants, it was sought to recharacterize phenotypes under field conditions that are used in planta. […] It has been reported previously that under standard glyphosate foliar application, 0.3 mM or more of glyphosate (gly) can accumulate in a plant's root nodules and meristems. […] These trends support reported literature of mutants P106S and TIPS grown in various plant hosts. As a result, the present synthetic yeast model system closely resembles in planta observations and thus can be used to select for dual-trait EPSPS variants aimed at both enzymatic efficiency and glyphosate resistance.
Select mutants isolated from the final directed evolution campaign with the improved selection strategy were further evaluated in assorted glyphosate concentrations to determine growth characteristics. Mutants isolated from an EPSPS background were evaluated in media containing 0 mM and 0.25 mM glyphosate with the latter being the concentration at which wild-type EPSPS cannot grow after 100 hours. […] The non-glyphosate mono selection highlighted in blue represents mutations resulting from 5 subcultures in 0 mM glyphosate. The low glyphosate dual selection highlighted in light green represents mutants resulting from an additional subculture into 0.5 mM glyphosate. Lastly, the high glyphosate dual selection highlighted in dark green represent mutations isolated after subcultures in increasing levels of glyphosate, up to 10 mM.

Molecule | growth inhibition [1] | Number of young plants passing quality control checks [2] | Number of plantlets generated [2] | tolerance to glyphosate ([3]; 2× field rate) | Average Injury At 1120 g/ha ([3]; Roundup PowerMax3, 1× field rate, 18 days after treatment, scale of 0 to 100) | Average Injury At 2240 g/ha ([3]; Roundup PowerMax3, 2× field rate, 18 days after treatment, scale of 0 to 100) | tolerance to glyphosate ([3]; equivalent 1× field dose) | growth in yeast minimal media without glyphosate ([4]; 0 mM glyphosate) | glyphosate tolerance in synthetic yeast host [4] | glyphosate tolerance in synthetic yeast host ([4]; listed as TIPS P126S/M217L/K296R)
O=C(O)CNCP(=O)(O)O [glyphosate, N-phosphonomethylglycine] | slight growth inhibition | – | – | – | – | – | – | – | – | –
B1 | – | 13 | 92 | full tolerance | 0 | 0 | excellent tolerance | high growth in non-glyphosate | high glyphosate tolerance | high glyphosate tolerance (even higher than TIPS)
B2 | – | 1 | 11 | – | – | – | – | – | – | –
